According to article PMC2225448 (Structure(London, England:1993), 2007):

Target: Human SOCS4 (amino acids 274-437) (human, UniProt Q8WXH5 274-437)
Assay: crystal structure; ternary complex coexpressed and purified; crystals at 4°C from 10% PEG6000, 2M NaCl; molecular replacement, refined to 2.5 Å
Conditions: both partners purified

Sequence of Human SOCS4 (amino acids 274-437) (Q8WXH5 274-437): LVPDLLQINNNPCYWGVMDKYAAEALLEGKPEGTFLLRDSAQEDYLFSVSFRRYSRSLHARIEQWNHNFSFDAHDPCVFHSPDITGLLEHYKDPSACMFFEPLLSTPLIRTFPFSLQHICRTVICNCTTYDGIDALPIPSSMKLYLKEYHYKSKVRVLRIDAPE

B1: ElonginB (natural protein, human)
chain: MDVFLMIRRHKTTIFTDAKESSTVFELKRIVEGILKRPPDEQRLYKDDQLLDDGKTLGECGFTSQTARPQAPATVGLAFRADDTFEALCIEPFSSPPELPDVMKPQDSGSSANEQAVQ
binding result: binds
